As usually defined, the Kd is the free concentration of one partner at which half of the binding sites on the other are occupied at equilibrium, for simple one-to-one binding.

Among the data in patent US20110117625, “Engineered Nucleases and Their Uses for Nucleic Acid Assembly” (published 2011) are binding result and Kd values, retold here.

Series [1] has as its target T1, I-CreI D20N/Q47A (UniProt P05725 P05725:1-163, D20N,Q47A).
T1 sequence: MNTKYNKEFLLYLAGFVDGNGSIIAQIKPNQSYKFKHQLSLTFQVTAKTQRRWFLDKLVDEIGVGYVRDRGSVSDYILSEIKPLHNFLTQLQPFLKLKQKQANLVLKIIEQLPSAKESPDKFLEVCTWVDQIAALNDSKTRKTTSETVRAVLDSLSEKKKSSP
Kind of series: EMSA; 5 nM DNA, 20 mM Tris pH 9.0, 37 C; printed D2ON. Particulars: tags: 6xHis N-terminal with TEV site; chain copies: 2; EcoRI/BamHI overhangs. As to the method: (§1) Various concentrations of I-SceI or I-CreI (generally between 2.5 and 50 nM) were mixed with 5 nM DNA in 20 mM tris.HCl, 100 ug/mL bovine serum albumin, pH 8.0 (for I-SceI variants) or pH 9.0 (for I-CreI variants) in a total volume of 10 ìL. After incubation for 20 minutes at 37° C., 1 ìL of 10× DNA retardation gel loading buffer (Invitrogen) was added and the samples were loaded onto a 1 mm thick DNA retardation gel (Invitrogen). Electrophoresis was performed for 45 minutes at 175 Volts in 0.5× TBE buffer (Invitrogen). Gels were stained for 45 minutes with SYBR Gold stain (Invitrogen) and visualized by UV illumination. Densitometry was performed on a digital image of the gel to determine the relative intensities of the bands corresponding to bound and unbound DNA. Intensities of bound and unbound DNA were used to determine the concentrations of bound and free enzyme at each initial concentration. […] Binding affinities (dissociation constants, Kd) were determined by plotting the concentration of bound enzyme on the y-axis and the concentration of free enzyme on the x-axis for each data point and fitting the data to a rectangular hyperbola using standard nonlinear least-squares fitting procedures, using the equation y=([DNA]*x)/(Kd+x).
On the technique in general: Mobility shift assays separate free from complexed probe on a gel.

The target of series [2] is T2, I-SceI D44A/D145N (UniProt P03882 P03882:1-235, D44A,D145N).
T2 sequence: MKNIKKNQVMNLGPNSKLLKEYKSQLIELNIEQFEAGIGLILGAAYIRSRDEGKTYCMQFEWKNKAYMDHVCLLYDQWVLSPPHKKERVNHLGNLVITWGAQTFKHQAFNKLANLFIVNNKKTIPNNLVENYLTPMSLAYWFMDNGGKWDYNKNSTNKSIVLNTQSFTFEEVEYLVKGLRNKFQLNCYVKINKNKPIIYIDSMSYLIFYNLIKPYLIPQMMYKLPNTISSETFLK
Kind of series: EMSA; 5 nM DNA, 20 mM Tris pH 8.0, 37 C. As to conditions: tags: 6xHis N-terminal with TEV site; EcoRI/BamHI overhangs. On the procedure:
as §1

For series [3], the target named is T3, Sce7 (I-SceI D44N/D145A, non-cleaving) (UniProt P03882 P03882:1-235, D44N,D145A).
T3 sequence: T2 sequence with A44N, N145A
Nature of the series: EMSA; 20 mM Tris pH 9.0, 25 mM NaCl, 10 mM CaCl2, 37 C. As to conditions: tags: 6xHis N-terminal with TEV site. As to the method:
The binding affinities for the I-SceI recognition sites were determined using a gel-shift assay and are depicted in Table 3.
To measure the dissociation constants, the binding protein of interest, at a range of concentrations between 2 and 400 nM, was incubated with 10 nM DNA substrate in 20 ìL of 20 mM Tris.HCl, pH 9.0, 25 mM NaCl, 10 mM CaCl2, 1 mM DTT, 2% glycerol, and 0.1 mg/mL BSA, for 20 minutes at 37° C. (Sce7 and CdnDI) or 42° C. (CdnDII). Two ìL of 10′ loading buffer were added to each sample, and 10 ìL of each mixture were loaded onto 6% polyacrylamide DNA retardation gels (Invitrogen), and run for 30 minutes at 175 V. The gels were stained with SYBR Gold (Invitrogen) and visualized with ultraviolet light. DNA-containing bands were quantified by densitometry as described above. Concentrations of bound and free protein were calculated from the input amount of DNA and from ratios of band intensities, and the data were fit using Origin software (Originlab, Northampton, Mass.) to the following equation: […]

For series [4], the target named is T4, I-SceI (wild type) (UniProt P03882 P03882:1-235).
T4 sequence: T2 sequence with A44D, N145D
Nature of the series: EMSA; 20 mM Tris pH 9.0, 25 mM NaCl, 10 mM CaCl2, 37 C?
Particulars: tags: 6xHis N-terminal with TEV site (as for variants).

Substitutions are numbered along the chain they refer to.

B1: pSCI insert with I-SceI and I-CreI sites (142 bp) (dsDNA)
DNA 1: AATTCTGGTTCCGAAGCCTGTCCTGCACGCTAGGGATAACAGGGTAATAATATATGAATCCAAACTAGAGCGGGGCTCTTGACGTTTGGCTCAAAACGTCGTGAGACAGTTTGGTCAGTTGTAAATATCTAATATTCCAATG
DNA 2: GATCCATTGGAATATTAGATATTTACAACTGACCAAACTGTCTCACGACGTTTTGAGCCAAACGTCAAGAGCCCCGCTCTAGTTTGGATTCATATATTATTACCCTGTTATCCCTAGCGTGCAGGACAGGCTTCGGAACCAG
With B1, the binding result in series [1] and in series [2] was “binds” in each case.

B2: 80-bp I-SceI site duplex (dsDNA)
DNA 1: GAATTCTGGTTCCGAAGCCTGTCCTGCACGCTAGGGATAACAGGGTAATAATATATGAATCCAAACTAGAGCGGGGCTCT
DNA 2: AGAGCCCCGCTCTAGTTTGGATTCATATATTATTACCCTGTTATCCCTAGCGTGCAGGACAGGCTTCGGAACCAGAATTC
For the molecule B2, the Kd in series [3] is 13 nM; in series [4] it was 62 nM.
